Measured values taken from IntAct's records for PubMed 29128334.

B1: Peroxiredoxin-5, mitochondrial (Homo sapiens), P30044 (parent)
chain: MGLAGVCALRRSAGYILVGGAGGQSAAAAARRYSEGEWASGGVRSFSRAAAAMAPIKVGDAIPAVEVFEGEPGNKVNLAELFKGKKGVLFGVPGAFTPGCSKTHLPGFVEQAEALKAKGVQVVACLSVNDAFVTGEWGRAHKAEGKVRLLADPTGAFGKETDLLLDDSLVSIFGNRRLKRFSMVVQDGIVKALNVEPDGTGLTCSLAPNIISQL
B2: Dihydrolipoyl dehydrogenase, mitochondrial (Homo sapiens), P09622 (parent)
chain: MQSWSRVYCSLAKRGHFNRISHGLQGLSAVPLRTYADQPIDADVTVIGSGPGGYVAAIKAAQLGFKTVCIEKNETLGGTCLNVGCIPSKALLNNSHYYHMAHGKDFASRGIEMSEVRLNLDKMMEQKSTAVKALTGGIAHLFKQNKVVHVNGYGKITGKNQVTATKADGGTQVIDTKNILIATGSEVTPFPGITIDEDTIVSSTGALSLKKVPEKMVVIGAGVIGVELGSVWQRLGADVTAVEFLGHVGGVGIDMEISKNFQRILQKQGFKFKLNTKVTGATKKSDGKIDVSIEAASGGKAEVITCDVLLVCIGRRPFTKNLGLEELGIELDPRGRIPVNTRFQTKIPNIYAIGDVVAGPMLAHKAEDEGIICVEGMAGGAVHIDYNCVPSVIYTHPEVAWVGKSEEQLKEEGIEYKVGKFPFAANSRAKTNADTDGMVKILGQKSTDRVLGAHILGPGAGEMVNEAALALEYGASCEDIARVCHAHPTLSEAFREANLAASFGKSINF
partner: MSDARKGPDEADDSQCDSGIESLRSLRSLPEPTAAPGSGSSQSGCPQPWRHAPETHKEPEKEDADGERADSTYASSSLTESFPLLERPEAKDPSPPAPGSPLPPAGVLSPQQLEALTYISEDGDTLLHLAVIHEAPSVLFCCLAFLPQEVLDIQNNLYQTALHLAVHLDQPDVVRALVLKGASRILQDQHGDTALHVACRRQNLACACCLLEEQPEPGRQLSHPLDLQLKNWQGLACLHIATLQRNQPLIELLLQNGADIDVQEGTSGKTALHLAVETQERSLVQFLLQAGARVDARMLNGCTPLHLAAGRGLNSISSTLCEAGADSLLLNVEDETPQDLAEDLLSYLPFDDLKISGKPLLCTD
B3: Serine/threonine-protein kinase PINK1, mitochondrial (Homo sapiens), Q9BXM7 (parent)
chain: MAVRQALGRGLQLGRALLLRFTGKPGRAYGLGRPGPAAGCVRGERPGWAAGPGAEPRRVGLGLPNRLRFFRQSVAGLAARLQRQFVVRAWGCAGPCGRAVFLAFGLGLGLIEEKQAESRRAVSACQEIQAIFTQKSKPGPDPLDTRRLQGFRLEEYLIGQSIGKGCSAAVYEATMPTLPQNLEVTKSTGLLPGRGPGTSAPGEGQERAPGAPAFPLAIKMMWNISAGSSSEAILNTMSQELVPASRVALAGEYGAVTYRKSKRGPKQLAPHPNIIRVLRAFTSSVPLLPGALVDYPDVLPSRLHPEGLGHGRTLFLVMKNYPCTLRQYLCVNTPSPRLAAMMLLQLLEGVDHLVQQGIAHRDLKSDNILVELDPDGCPWLVIADFGCCLADESIGLQLPFSSWYVDRGGNGCLMAPEVSTARPGPRAVIDYSKADAWAVGAIAYEIFGLVNPFYGQGKAHLESRSYQEAQLPALPESVPPDVRQLVRALLQREASKRPSARVAANVLHLSLWGEHILALKNLKLDKMVGWLLQQSAATLLANRLTEKCCVETKMKMLFLANLECETLCQAALLLCSWRAAL
partner: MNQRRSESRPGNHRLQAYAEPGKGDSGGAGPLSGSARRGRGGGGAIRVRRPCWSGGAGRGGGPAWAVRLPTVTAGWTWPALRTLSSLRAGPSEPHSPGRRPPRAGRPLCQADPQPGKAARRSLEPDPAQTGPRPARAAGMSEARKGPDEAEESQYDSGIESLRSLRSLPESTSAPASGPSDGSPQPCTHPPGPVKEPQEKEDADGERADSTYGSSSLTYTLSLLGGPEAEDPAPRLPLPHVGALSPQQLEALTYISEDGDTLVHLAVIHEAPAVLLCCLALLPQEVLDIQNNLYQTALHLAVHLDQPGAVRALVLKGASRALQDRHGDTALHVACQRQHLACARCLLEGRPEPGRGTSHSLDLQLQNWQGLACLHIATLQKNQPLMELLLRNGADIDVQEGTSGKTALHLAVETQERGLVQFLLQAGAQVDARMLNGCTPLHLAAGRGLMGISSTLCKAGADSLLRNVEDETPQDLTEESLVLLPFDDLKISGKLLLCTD

Variants of: B1
Conditions: with sodc_human SOD1, P00441
Sequence of sodc_human SOD1, P00441 (P00441 whole entry): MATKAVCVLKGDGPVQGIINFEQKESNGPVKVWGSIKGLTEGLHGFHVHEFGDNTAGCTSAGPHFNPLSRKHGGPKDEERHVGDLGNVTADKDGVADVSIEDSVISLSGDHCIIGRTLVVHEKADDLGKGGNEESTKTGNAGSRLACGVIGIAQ

| Variant | effect of a mutation on the interaction |
| --- | --- |
| MGLAGVCALRRSAGYILVGGAGGQSAAAAARRYSEGEWASGGVRSFSRAAAAMAPIKVGDAIPAVEVFEGEPGNKVNLAELFKGRKGVLFGVPGAFTPGCSKTHLPGFVEQAEALKAKGVQVVACLSVNDAFVTGEWGRAHKAEGKVRLLADPTGAFGKETDLLLDDSLVSIFGNRRLKRFSMVVQDGIVKALNVEPDGTGLTCSLAPNIISQL [K85R] | disrupting interaction strength |
| MGLAGVCALRRSAGYILVGGAGGQSAAAAARRYSEGEWASGGVRSFSRAAAAMAPIKVGDAIPAVEVFEGEPGNKVNLAELFRGKKGVLFGVPGAFTPGCSKTHLPGFVEQAEALKAKGVQVVACLSVNDAFVTGEWGRAHKAEGKVRLLADPTGAFGKETDLLLDDSLVSIFGNRRLKRFSMVVQDGIVKALNVEPDGTGLTCSLAPNIISQL [K83R] | with no effect |
| MGLAGVCALRRSAGYILVGGAGGQSAAAAARRYSEGEWASGGVRSFSRAAAAMAPIKVGDAIPAVEVFEGEPGNKVNLAKLFKGKKGVLFGVPGAFTPGCSKTHLPGFVEQAEALKAKGVQVVACLSVNDAFVTGEWGRAHKAEGKVRLLADPTGAFGKETDLLLDDSLVSIFGNRRLKRFSMVVQDGIVKALNVEPDGTGLTCSLAPNIISQL [E80K] | with no effect |

Variants of: B2
Conditions: with ikbe_mouse Nfkbie

| Variant | effect of a mutation on the interaction |
| --- | --- |
| MQSWSRVYCSLAKRGHFNRISHGLQGLSAVPLRTYADQPIDADVTVIGSGPGGYVAAIKAAQLGFKTVCIEKNETLGGTCLNVGCIPSKALLNNSHYYHMAHGKDFASRGIEMSEVRLNLDKMMEQKSTAVKALTGGIAHLFKQNKVVHVNGYGKITGKNQVTATKADGGTQVIDTKNILIATGSEVTPFPGITIDEDTIVSSTGALSLKKVPEKMVVIGAGVIGVELGSVWQRLGADVTAVEFLGHVGGVGIDMEISKNFQRILQKQGFKFKLNTKVTGATKKSDGKIDVSIEAASGGKAEVITCDVLLVCIGRRPFTKNLGLEELGIELDPRGRIPVNTRFQTKIPNIYAIGDVVAGPMLAHKAEDEGIICVEGMAGGAVHIDYNCVPSVIYTHPEVAWVGKSEEQLKEEGIEYKVGKFPFAANSRAKTNADTDGMVKILGQKSTDRVLGAHILGPGAGEMVNEAALALEYGASCEDIARVCHAHPTLAEAFREANLAASFGKSINF [S491A] | disrupting interaction strength |

Variants of: B3
Conditions: with ikbe_human NFKBIE

| Variant | effect of a mutation on the interaction |
| --- | --- |
| MAVRQALGRGLQLGRALLLRFTGKPGRAYGLGRPGPAAGCVRGERPGWAAGPGAEPRRVGLGLPNRLRFFRQSVAGLAARLQRQFVVRAWGCAGPCGRAVFLAFGLGLGLIEEKQAESRRAVSACQEIQAIFTQKSKPGPDPLDTRRLQGFRLEEYLIGQSIGKGCSPAVYEATMPTLPQNLEVTKSTGLLPGRGPGTSAPGEGQERAPGAPAFPLAIKMMWNISAGSSSEAILNTMSQELVPASRVALAGEYGAVTYRKSKRGPKQLAPHPNIIRVLRAFTSSVPLLPGALVDYPDVLPSRLHPEGLGHGRTLFLVMKNYPCTLRQYLCVNTPSPRLAAMMLLQLLEGVDHLVQQGIAHRDLKSDNILVELDPDGCPWLVIADFGCCLADESIGLQLPFSSWYVDRGGNGCLMAPEVSTARPGPRAVIDYSKADAWAVGAIAYEIFGLVNPFYGQGKAHLESRSYQEAQLPALPESVPPDVRQLVRALLQREASKRPSARVAANVLHLSLWGEHILALKNLKLDKMVGWLLQQSAATLLANRLTEKCCVETKMKMLFLANLECETLCQAALLLCSWRAAL [A168P] | disrupting interaction strength |
